From publication PMC4122463, “Application of Two Newly Identified and Characterized Feruloyl Esterases from Streptomyces sp. in the Enzymatic Production of Ferulic Acid from Agricultural Biomass” (PLoS ONE, 2014)

What was measured:
Assay type in all cases: biochemical, Streptomyces cinnamoneus
purified protein = substrate: CCCC(=O)Oc1ccc([N+](=O)[O-])cc1; assay: purified protein; details: general esterase assay
[1] = substrate: CCOC(=O)/C=C/c1ccc(O)c(OC)c1; assay: HPLC of released phenolic acid; details: 50 mM Tris maleate, 40 °C, 30 min
Source text: (§1) HPLC of released phenolic acid on R43

[2] = substrate: COC(=O)/C=C/c1cc(OC)c(O)c(OC)c1; assay: HPLC of released phenolic acid; details: 50 mM Tris maleate, 40 °C, 30 min
Source text: as §1

[3] = substrate: COC(=O)/C=C/c1ccc(O)c(O)c1; assay: HPLC of released phenolic acid; details: 50 mM Tris maleate, 40 °C, 30 min
Source text: as §1

[4] = substrate: COC(=O)/C=C/c1ccc(O)c(OC)c1; assay: HPLC of released phenolic acid; details: 50 mM Tris maleate, 40 °C, 30 min
Source text: as §1

[5] = substrate: COC(=O)/C=C/c1ccc(O)cc1; assay: HPLC of released phenolic acid; details: 50 mM Tris maleate, 40 °C, 30 min
Source text: as §1

[6] = substrate: CCOC(=O)/C=C/c1ccc(O)c(OC)c1; assay: HPLC of released phenolic acid; details: 50 mM Tris maleate, 50 °C, 30 min
Source text: (§2) HPLC of released phenolic acid on R18

[7] = substrate: COC(=O)/C=C/c1cc(OC)c(O)c(OC)c1; assay: HPLC of released phenolic acid; details: 50 mM Tris maleate, 50 °C, 30 min
Source text: as §2

[8] = substrate: COC(=O)/C=C/c1ccc(O)c(O)c1; assay: HPLC of released phenolic acid; details: 50 mM Tris maleate, 50 °C, 30 min
Source text: as §2

[9] = substrate: COC(=O)/C=C/c1ccc(O)c(OC)c1; assay: HPLC of released phenolic acid; details: 50 mM Tris maleate, 50 °C, 30 min
Source text: as §2

[10] = substrate: COC(=O)/C=C/c1ccc(O)cc1; assay: HPLC of released phenolic acid; details: 50 mM Tris maleate, 50 °C, 30 min
Source text: as §2

B1: R43 (Streptomyces cinnamoneus) (protein)
chain: MEIRTAQGIVRGELTAGGLAVFRGVPYARPPVGNLRFAAPQPPLPWDGVRDALAFGPPPPQSGPARVPGDPAGTDWLTLNVWTPDPGGSGLPVLVWIPGGAYVSGAAGDPLYDAALLAGQGGLVVVTLNYRLGAEGFAHLPGVPDNRGLLDQLAALDWVRQNIARFGGNPDRVTLCGQSAGAGSIATLLAAPRAAGLFRRAITQSVPGLYATCALAADVTADLAARLGTTPTTAGLAAVSPQRLADAIDPLMEELPARIDRWGRLARSGVPFLPVVDGDVVPDVPWRSLRDGRASETDLLTGHTRDEFRPFLMLSGHPEKITDEDATAALRALAPAPDGERAYRAAHPDASPAALFELLYSDVLFRMPSLHLADAHSAGGGTAHLYELCLSAPALGGALGAAHGLDVSLLFGTYSAPAARLFYGEEPPPEDVLALGDDIRRSWASFAAHGDPGWPAYRVTDGRLTGLLDTGTGAGPYPEDASRRIWEGHGVEPFDLV
notes: full length, no signal peptide, secreted from Streptomyces expression host (pTONA vector); 498 aa; about 52 kDa; N-terminus at residue 1; monomer; powdered enzyme
B1 gave a Km (purified protein) of 0.17 ± 0.05 mM, a Vmax (purified protein) of 0.00056 µmol/min/mg and a Km [1] of 1.96 ± 0.14 mM. The Vmax [1] was 0.0153 µmol/min/mg, the Km [2] was 0.54 ± 0.07 mM and the Vmax [2] was 0.00104 µmol/min/mg. For the same protein, the Km [3] was 2.61 ± 0.25 mM, the Vmax [3] was 0.0021 µmol/min/mg and the Km [4] was 4.41 ± 0.36 mM. It also gave a Vmax [4] of 0.042 µmol/min/mg, a Km [5] of 3.00 ± 0.26 mM and a Vmax [5] of 0.00817 µmol/min/mg.

B2: R18 (Streptomyces cinnamoneus) (protein)
chain: ATAGQEVPAPATRIPLGTKTLHLVDASRQDPWKPSAGNRELMVTLWYPSLPSREPAAPYVSKPLSRAVLGNDVLAGVRTHAVAGARPAPVPRPLVVLSPGFGMSRITLTALGEDLASRGYAVAAVDHTYEAPVEFPGGRIEKCTLCDDSRMDPGAVVRNRAKDLRFVLDRLTGPGSELRVDARRIGVAGHSIGGASAVEVMREDRRVDAAINLDGNFFTEPPAEGLNKPVLLLGARRSGLPEPQENWERAWKQLTGWKRWLDVPAGGHMTFTDVPWIVDRFGMPGQIPPEQVEGQLGTVSAARATAVTRNYVAAFFDRHLRGRPSPLLDRPSSAHPEVTFMK
notes: secreted from Streptomyces expression host (pTONA vector), signal peptide removed; mature N-terminus at residue 42 of 383; about 38 kDa; monomer; powdered enzyme
Protein B2 has a Km [6] of 4.28 ± 0.36 mM, a Vmax [6] of 0.0406 µmol/min/mg and a Km [7] of 9.39 ± 1.43 mM. For the same protein, the Vmax [7] was 0.0367 µmol/min/mg, the Km [8] was 3.31 ± 0.31 mM and the Vmax [8] was 0.00752 µmol/min/mg. The Km [9] was 4.99 ± 1.72 mM, the Vmax [9] was 0.0523 µmol/min/mg and the Km [10] was 4.31 ± 0.26 mM. It also gave a Vmax [10] of 0.0262 µmol/min/mg.
